# Test results published in PMC3570589.
# How the values were obtained:
# Assay in all cases: ITC
# [1] = molecular target: H3_((28–43))K36me3 peptide (UniProt P68431)
# [2] = molecular target: H3_((28–43))K36me1 peptide (UniProt P68431)
# [3] = molecular target: H3_((28–43))K36me2 peptide (UniProt P68431)
# [4] = molecular target: H3_((27–46))K36me3 peptide (UniProt P68431)
# PHF1 Tudor domain protein, wild-type (ITC and silver-stained peptide pull-downs), sequence (O43189 29-86): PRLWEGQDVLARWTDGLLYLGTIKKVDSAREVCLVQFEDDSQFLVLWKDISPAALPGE
Substance,Ka [1] [M⁻¹],Kd [1] [µM],dH [1] [kcal/mol],stoichiometry N [1],dH [2] [kcal/mol],stoichiometry N [2],Ka [3] [M⁻¹],Kd [3] [µM],dH [3] [kcal/mol],stoichiometry N [3],Kd [4] [µM]
"PHF1 Tudor domain protein, E66K (from UniProt O43189-1 29-86) (domain or fragment)",43900,22.8,-6.47,,,,,,,,
"PHF1 Tudor domain protein, W41A (from UniProt O43189-1 29-86) (domain or fragment)",33200,30.1,-1.35,0.68,,,,,,,
"PHF1 Tudor domain protein, wild-type (ITC and silver-stained peptide pull-downs) (from UniProt O43189-1 29-86) (domain or fragment)",238000,4.2,-5.63,0.79,-0.817,0.7,51800,19.3,-3.99,0.94,
"PHF19 Tudor domain protein, wild-type (from UniProt Q5T6S3 40-93) (domain or fragment)",,,,,,,,,,,5 to 7
